Test results reported in US20240425556A1, “MYOPEPTIDES AND METHODS OF USE IN TREATING HEART FAILURE” (University of Cincinnati, priority 2021, published 2024).

B1: recombinant C0-C2 protein (C0, C1 and C2 domains of cardiac myosin binding protein-C) with 6X his-tag (other)
chain: MPEPGKKPVSAFNKKPRSAEVTAGSAAVFEAETERSGVMVRWQRDGSDITANDKYGLAAEGKRHTLTVRDASPDDQGSYAVIAGSSKVKFDLKVTEPAPPEKAESEVAPGAPEEVPAPATELEESVSSPEGSVSVTQDGSAAEHQGAPDDPIGLFLMRPQDGEVTVGGSIVFSARVAGASLLKPPVVKWFKGKWVDLSSKVGQHLQLHDSYDRASKVYLFELHITDAQTTSAGGYRCEVSTKDKFDSCNFNLTVHEAIGSGDLDLRSAFRRTSLAGAGRRTSDSHEDAGTPDFSSLLKKRDSFRRDSKLEAPAEEDVWEILRQAPPSEYERIAFQHGVEACHRPLKRLKGMKQDEKKSTAFQKKLEPAYQVNKGHKIRLTVELADPDAEVKWLKNGQEIQMSGSKYIFESVGAKRTLTISQCSLADDAAYQCVVGGEKCSTELFVKEP
B2: recombinant S2^126 (proximal 126 amino acid sub-fragment 2 region of myosin) with 6X his-tag (other)
chain: PLLKSAETEKEMANMKEEFGRVKDALEKSEARRKELEEKMVSLLQEKNDLQLQVQAEQDNLNDAEERCDQLIKNKIQLEAKVKEMTERLEDEEEMNAELTAKKRKLEDECSELKKDIDDLELTLAK
notes: The position of the his-tag is unknown; also called mouse myosin S2; not shown: 6X his-tag

How the values were obtained:
[1] = target: T1, S2^126-C0-C2 binding (Homo sapiens, UniProt Q14896); assay: Solid phase binding assay (SPBA), competition for S2^126-C0-C2 binding; settings: for ability to compete for S2^126-C0-C2 binding: SPBA, FIGS. 3A and 3B
T1 construct: 6X His; made in house; host or cells: E. coli BL21
Description: Peptides of Table 1 were tested in vitro to determine whether they compete for binding in the interaction between S2^126 and the C0-C2 protein. In these experiments, recombinant S2^126 and C0-C2 protein with 6X his-tags were bacterially expressed in BL21 E. coli and then purified through Talon© metal affinity columns. A solid phase binding assay (SPBA) was then performed, whereby 20 μM of the C0-C2 protein was adsorbed onto wells of a 96-well microtiter plate. Then, 20 μM of S2^126, along with increasing concentrations of selected experimental peptides from Table 1, ranging from 0-20 μM, were added.
The following procedure identified the competitive nature of the tested experimental peptides from Table 1. […] The Alexa Fluor 568© secondary antibody (anti-rabbit) would then bind to the primary antibody to give a relative positive fluorescence of 1.0. Conversely, if the experimental peptide successfully competed with the S2^126-C0-C2 binding. then the S2^126 site would not be available for binding by the primary antibody. Therefore, the secondary antibody would also fail to bind, leading to a decrease in the relative fluorescence below 1.0. As a result, for a non-competing peptide, the relative fluorescence approaches 1.0, as observed by S2^126-C0-C2 binding. For a competing peptide, a decay in the relative fluorescence is observed. This SPBA assay was used to screen peptides for efficacy in disrupting the interaction between S2^126-C0-C2.

[2] = test system: skinned papillary fibers from mouse hearts; assay: Maximal force (Fmax) of skinned papillary muscle fibers versus calcium concentration; settings: for effect on muscle / contractile function: summary statement
Description: The ability of the experimental peptides to increase or otherwise affect contractility in the heart muscle system was tested using skinned papillary fibers from mouse hearts. In this ex vivo experiment, cardiac papillary fibers from mouse hearts were isolated and skinned overnight in 1% Triton X-100 low calcium buffer supplemented with ATP, creatine phosphate, and magnesium chloride. Because skinned muscle fibers are devoid of sarcolemma, nuclei, and sarcoplasmic reticulum, the fibers can only contract if supplemented with calcium, magnesium chloride, ATP, and creatine phosphate. This assay allows for the opportunity to screen for compounds or molecules that affect the contractility of the muscle.
Skinned papillary muscle fibers were cycled through buffers containing a constant concentration magnesium chloride, ATP, creatine phosphate, but increasing concentrations of calcium. As the muscle fiber goes from buffers containing low concentrations of calcium to buffers containing high concentrations of calcium, the force developed increases with increasing concentration. Thus, plotting the force produced versus calcium concentration provides a sigmoidal curve, yielding the maximal force produced (Fmax) and the midpoint calcium concentration where the force produced is exactly half of the force produced at high calcium concentration. This is useful for measuring the calcium sensitivity (pCa50) of the muscle fibers.
The experiment and measurement of Fmax, pCa50, and ktr was performed for a muscle in the absence of the experimental peptide and then in the presence of 10 μM and 20 μM of the experimental peptide.

[3] = target: cardiac myosin binding protein-C (cMyBP-C) in skinned papillary muscle fibers from mouse hearts (mouse, UniProt O70468 1-1270); assay: cell-based or functional assay
[4] = target: B1; assay: solid phase binding assay; competition with S2^126 on adsorbed C0-C2
[5] = target: B1; assay: solid phase binding assay, competition: C0-C2 adsorbed on the plate, 20 µM S2^126 as competitor plus rising peptide; bound S2^126 detected with rabbit anti-S2^126 and Alexa Fluor 568 secondary antibody (Fluorescence Endpoint λ603, relative)
[6] = target: B2; assay: ITC; 300 µM S2^126 titrated into 20 µM C0-C2
[7] = target: B1; assay: solid phase binding assay; peptide 0-20 µM against 20 µM S2^126 on adsorbed C0-C2
[8] = target: B1; assay: ITC; 300 µM S2^126 titrated into 20 µM C0-C2
[9] = target: T2, C0-C2 protein (Homo sapiens, UniProt Q14896); assay: Isothermal titrating calorimetry (ITC); assay type: binding; settings: 300 μM S2^126 titrated to 20 μM C0-C2 protein; read-out: dissociation constant (kd)
T2 construct: 6X His; made in house; host or cells: E. coli BL21
Description: Isothermal titrating calorimetry (ITC) was used to validate and verify the results from the SPBA assays of Example 2. In ITC experiments, the heat of binding between two proteins is measured by titrating one protein with the other protein and then measuring the heat released or absorbed through a reference fluid with a constant temperature. By titrating 300 μM of S2^126 to 20 μM of C0-C2 protein, the stoichiometry (η) of 0.98 and dissociation constant (kd) of 4.7 μM for S2^126-C0-C2 binding were determined.
Using the above stoichiometry and dissociation constant values as controls, all of the experimental peptides were titrated at 300 μM with 20 μM of C0-C2 protein and compared with the above S2^126 control.

[10] = at 20 μM peptide, 20 μM S2^126, 20 μM C0-C2 adsorbed

T1 sequence (Q14896 1-451 limits assumed): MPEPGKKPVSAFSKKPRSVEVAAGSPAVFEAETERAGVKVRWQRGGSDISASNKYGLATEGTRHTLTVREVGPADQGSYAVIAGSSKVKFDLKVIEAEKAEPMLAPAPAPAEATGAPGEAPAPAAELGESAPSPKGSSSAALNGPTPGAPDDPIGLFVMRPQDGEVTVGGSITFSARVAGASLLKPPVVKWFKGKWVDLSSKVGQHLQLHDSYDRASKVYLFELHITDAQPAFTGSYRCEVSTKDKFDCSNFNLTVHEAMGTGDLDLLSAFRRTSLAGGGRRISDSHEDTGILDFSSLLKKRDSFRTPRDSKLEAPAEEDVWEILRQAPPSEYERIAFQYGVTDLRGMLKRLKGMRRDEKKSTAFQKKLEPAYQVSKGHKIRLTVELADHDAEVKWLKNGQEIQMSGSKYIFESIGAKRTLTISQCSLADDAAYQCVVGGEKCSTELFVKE
T2 sequence (Q14896 1-451 limits assumed): as above

Question: How did the “ability to compete for S2^126-C0-C2 binding” value (“ability to compete” below) [1] turn out when “CDQLIKNKIQLEAKVKEMTERLEDEEEMNAELTAKK (listed as Mus musculus) [Amg 23005]” was run?
Answer: The value was “effectively compete”.

Question: What about the relative fluorescence [1, 10] of the same molecule?
Answer: The relative fluorescence was 0.

Question: And the “effect on muscle / contractile function” value [2]?
Answer: Its value is “successfully improved muscle function”.

Question: With “ETEKEMAMVSLLQAEERCDQDIDDLELTLAK [Amg 23050, scramble control peptide, reference compound]” as the molecule, how does the “ability to compete” value [1] read?
Answer: The value was “unable to compete”.

Question: How did the “ability to compete” value [1] turn out when “PLLKSAETEKEMANMKEEFGRVKDALEKSEARRKELEEKM (listed as Mus musculus) [Amg 23003]” was run?
Answer: Its value is “unable to compete”.

Question: With “RKELEEKMVSLLQEKNDLQLQVQAEQDNLNDAEERCDQLIKNK (listed as Mus musculus) [Amg 23004]” as the molecule, how does the “ability to compete” value [1] read?
Answer: The value was “unable to compete”.

Question: How did the “ability to compete” value [1] turn out when “VKEMTERLEDEEEMNAELTAKK (listed as Mus musculus) [Amg 27119]” was run?
Answer: The value was “effectively compete”.

Question: And the relative fluorescence ([1]; at peptide concentrations above 15 μM)?
Answer: Its relative fluorescence is 0.

Question: And the “increase of maximal force produced by the fibers” value ([2]; peptide 10 μM and 20 μM versus control, particularly at higher calcium concentrations)?
Answer: The value was “about 30%”.

Question: What about the “effect on muscle / contractile function” value [2] of the same molecule?
Answer: The value was “highly effective in improving contractile function”.

Question: Which results are given for “VKEMTERLEDEEEMNAELTAKKRKLEDECSELKKDIDDLELTLAK (listed as Mus musculus) [Amg 23006]”?
Answer: ability to compete for S2^126-C0-C2 binding [1]: effectively compete; relative fluorescence [1, 10]: 0; effect on muscle / contractile function [2]: successfully improved muscle function

Question: Which “maximal force produced by skinned papillary muscle fibers (Fmax)” value (“maximal force produced … (Fmax)” below) [3] does the source give for CDQLIKNKIQLEAKVKEMTERLEDEEEMNAELTAKK [Amg 23005] here?
Answer: The value was 13%.

Question: What about the “rate of force redevelopment (ktr) at pCa 5.7” value (“rate of force redevelopment” for short) [3] of the same molecule?
Answer: The value was 1.5 fold.

Question: What about the stoichiometry [4] of the same molecule?
Answer: The stoichiometry was 1.

Question: Which “maximal force produced … (Fmax)” value [3] does the source give for VKEMTERLEDEEEMNAELTAKKRKLEDECSELKKDIDDLELTLAK [Amg 23006] here?
Answer: Its value is 13%.

Question: And the “rate of force redevelopment” value [3]?
Answer: Its value is 1.5 fold.

Question: What about the stoichiometry [4] of the same molecule?
Answer: Its stoichiometry is 1.

Question: With VKEMTERLEDEEEMNAELTAKK (also called myopeptide) [Amg 27119 (mouse myosin S2 subset)] as the molecule, how does the “maximal force produced … (Fmax)” value [3] read?
Answer: Its value is roughly 30%.

Question: And the “rate of force redevelopment” value [3]?
Answer: Its value is 2.5 fold.

Question: And the “IC50 (read off the curve)” value [5]?
Answer: Its value is roughly 6 µM.

Question: B1 was tested. Which Kd [6] did it give?
Answer: Its Kd is 4.7 µM.

Question: DEEEMNAELTAKKR [Amg 27117] was tested. Which relative fluorescence [7] did it give?
Answer: The relative fluorescence was roughly 1 relative fluorescence.

Question: Which relative fluorescence [7] does the source give for KLEDECSELKKDIDDLELTLAK [Amg 27118] here?
Answer: The relative fluorescence was roughly 1 relative fluorescence.

Question: Which relative fluorescence [7] does the source give for ETEKEMAMVSLLQAE [Amg 27120] here?
Answer: Its relative fluorescence is roughly 1 relative fluorescence.

Question: For B2, which “stoichiometry (η)” value [8] is on record?
Answer: The value was 0.98.

Question: Which relative fluorescence [7] does the source give for PLLKSAETEKEMANMKEEFGRVKDALEKSEARRKELEEKM [Amg 23003] here?
Answer: Its relative fluorescence is roughly 1 relative fluorescence.

Question: With RKELEEKMVSLLQEKNDLQLQVQAEQDNLNDAEERCDQLIKNK [Amg 23004] as the molecule, how does the relative fluorescence [7] read?
Answer: Its relative fluorescence is roughly 1 relative fluorescence.

Question: With ETEKEMAMVSLLQAEERCDQDIDDLELTLAK [Scramble control Amg 25030] as the molecule, how does the relative fluorescence [7] read?
Answer: The relative fluorescence was roughly 1 relative fluorescence.

B3: PLLKSAETEKEMANMKEEFGRVKDALEKSEARRKELEEKMVSLLQEKNDLQLQVQAEQDNLNDAEERCDQLIKNKIQLEAKVKEMTERLEDEEEMNAELTAKKRKLEDECSELKKDIDDLELTLAK (protein, listed as Mus musculus)
chain: PLLKSAETEKEMANMKEEFGRVKDALEKSEARRKELEEKMVSLLQEKNDLQLQVQAEQDNLNDAEERCDQLIKNKIQLEAKVKEMTERLEDEEEMNAELTAKKRKLEDECSELKKDIDDLELTLAK
modifications: 6X His tag
notes: recombinant proximal 126 amino acid fragment of myosin S2 with 6X his-tag, expressed in E. coli
Question: For B3, which Kd [9] is on record?
Answer: Its Kd is 4.7 µM.
